# Measured values as given in patent publication US20240287172A1 (SCIRHOM, published 2024).
# Numbering of substitutions follows the chain as printed.
# T1: human iRhom2, endogenously expressed (human, UniProt Q6PJF5 1-856)
# T1 sequence: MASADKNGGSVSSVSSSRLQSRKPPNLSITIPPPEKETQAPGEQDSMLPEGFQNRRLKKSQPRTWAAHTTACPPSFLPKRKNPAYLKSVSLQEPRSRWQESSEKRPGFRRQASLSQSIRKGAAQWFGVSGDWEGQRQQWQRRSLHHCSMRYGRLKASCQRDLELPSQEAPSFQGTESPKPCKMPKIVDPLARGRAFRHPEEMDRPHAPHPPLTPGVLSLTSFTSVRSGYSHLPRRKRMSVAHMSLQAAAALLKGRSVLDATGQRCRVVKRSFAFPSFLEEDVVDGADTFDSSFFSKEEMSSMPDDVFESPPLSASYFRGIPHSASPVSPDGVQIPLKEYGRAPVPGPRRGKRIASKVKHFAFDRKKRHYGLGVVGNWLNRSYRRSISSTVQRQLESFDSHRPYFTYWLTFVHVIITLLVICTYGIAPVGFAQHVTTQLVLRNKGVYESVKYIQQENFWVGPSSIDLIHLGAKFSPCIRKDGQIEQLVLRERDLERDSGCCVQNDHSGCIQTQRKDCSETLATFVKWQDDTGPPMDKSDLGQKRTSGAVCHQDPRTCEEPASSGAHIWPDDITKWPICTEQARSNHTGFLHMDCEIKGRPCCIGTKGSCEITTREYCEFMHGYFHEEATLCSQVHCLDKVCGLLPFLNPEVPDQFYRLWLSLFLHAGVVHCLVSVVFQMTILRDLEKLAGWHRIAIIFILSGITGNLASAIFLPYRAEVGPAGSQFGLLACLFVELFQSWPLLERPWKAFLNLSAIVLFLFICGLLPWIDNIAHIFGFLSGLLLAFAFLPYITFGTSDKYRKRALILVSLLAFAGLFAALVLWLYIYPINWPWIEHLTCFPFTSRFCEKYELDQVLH
# T2: dog iRhom2 full length wild type, T7-tagged (dog, UniProt Q00M95 1-827)
# T2 construct: whole, on cells; on MEF-DKO cells; also called Dog-iR2-FL-WT-T7
# T2 sequence: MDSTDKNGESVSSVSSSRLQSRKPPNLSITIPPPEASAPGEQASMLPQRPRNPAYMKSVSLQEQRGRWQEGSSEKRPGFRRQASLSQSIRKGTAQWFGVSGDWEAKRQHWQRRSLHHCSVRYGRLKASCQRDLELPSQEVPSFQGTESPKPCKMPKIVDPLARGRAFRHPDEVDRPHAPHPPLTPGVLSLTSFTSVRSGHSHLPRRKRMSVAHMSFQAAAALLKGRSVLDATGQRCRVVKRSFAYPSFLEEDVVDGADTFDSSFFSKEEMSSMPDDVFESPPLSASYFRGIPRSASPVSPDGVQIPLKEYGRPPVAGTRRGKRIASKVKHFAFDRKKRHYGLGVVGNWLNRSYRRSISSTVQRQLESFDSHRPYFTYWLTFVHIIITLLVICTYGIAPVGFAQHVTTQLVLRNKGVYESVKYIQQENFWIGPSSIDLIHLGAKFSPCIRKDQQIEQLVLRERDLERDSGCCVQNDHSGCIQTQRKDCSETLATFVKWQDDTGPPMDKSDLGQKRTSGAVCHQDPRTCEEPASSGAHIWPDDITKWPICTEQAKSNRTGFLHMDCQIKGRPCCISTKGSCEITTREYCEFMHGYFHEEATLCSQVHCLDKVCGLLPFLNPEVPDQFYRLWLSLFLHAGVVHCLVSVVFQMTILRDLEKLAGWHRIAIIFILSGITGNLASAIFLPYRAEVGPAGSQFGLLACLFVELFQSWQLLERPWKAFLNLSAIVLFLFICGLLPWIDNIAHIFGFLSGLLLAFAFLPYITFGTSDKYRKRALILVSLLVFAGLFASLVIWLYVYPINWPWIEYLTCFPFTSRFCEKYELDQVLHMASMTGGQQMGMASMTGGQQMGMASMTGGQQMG
# T3: human iRhom1, endogenously expressed (human, UniProt Q96CC6 1-855)
# T3 construct: also called iRhom1 on RH-30 cells
# T3 sequence: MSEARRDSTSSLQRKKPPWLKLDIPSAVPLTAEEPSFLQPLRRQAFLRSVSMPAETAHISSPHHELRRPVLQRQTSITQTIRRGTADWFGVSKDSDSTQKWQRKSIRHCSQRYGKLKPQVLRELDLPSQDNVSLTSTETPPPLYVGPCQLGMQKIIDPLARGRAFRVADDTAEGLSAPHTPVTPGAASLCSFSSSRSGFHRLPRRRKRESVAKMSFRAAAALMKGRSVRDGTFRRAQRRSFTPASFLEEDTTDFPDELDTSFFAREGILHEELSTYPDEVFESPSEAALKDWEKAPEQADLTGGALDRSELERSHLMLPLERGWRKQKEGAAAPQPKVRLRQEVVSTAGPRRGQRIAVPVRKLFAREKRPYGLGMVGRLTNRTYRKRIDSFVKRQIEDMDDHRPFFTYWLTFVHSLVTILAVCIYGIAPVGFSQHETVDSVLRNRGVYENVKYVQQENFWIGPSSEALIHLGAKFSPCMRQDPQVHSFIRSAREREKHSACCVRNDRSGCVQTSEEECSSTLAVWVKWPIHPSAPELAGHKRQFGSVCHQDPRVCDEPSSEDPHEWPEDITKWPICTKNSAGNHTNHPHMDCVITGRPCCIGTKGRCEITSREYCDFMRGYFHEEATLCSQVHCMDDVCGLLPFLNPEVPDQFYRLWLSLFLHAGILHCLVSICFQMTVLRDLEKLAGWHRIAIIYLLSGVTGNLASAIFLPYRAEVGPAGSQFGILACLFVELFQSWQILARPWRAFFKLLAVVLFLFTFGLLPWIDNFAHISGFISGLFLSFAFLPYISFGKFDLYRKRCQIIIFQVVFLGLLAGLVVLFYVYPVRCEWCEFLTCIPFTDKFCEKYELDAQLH
# B1: chimeric antibody 22 (antibody, V domains shown)
# VH: QVTLKESGPGILQPSQTLSLTCSFSGFSLSTFGMGVGWIRQPSGKGLEWLAHIWWDDEKYYNSALKSRLTISKATSKNQVFLKIANVDTADTATYYCARISNYGSNYWYFNVWGTGTTVTVSS
# VL: QVVLTQSPALMSASPGEKVTMTCSAGSSVSYMYWYQQKPGSSPRVLIYDTSNLASGVPARFTGSGSGTSYSLTISRMEAEDAATYYCQQWNSYPLTFGAGTKLELK
# B2: chimeric antibody 42 (antibody, V domains shown)
# VH: B1 VH with F24L, M34R, S63P, A74D, K83R, S101Q, N111D
# VL: LIVLTQSPAIMSASPGEKVTMTCGATSRISYMFWYQQKPGSSPRVLIYDTSNLASGVPVRFSGSGSGTSYSLTISRVEAEDVATYYCQQWNSYPLTFGAGTKLELK
# B3: chimeric antibody 44 (antibody, V domains shown)
# VH: B1 VH with G44E, E58D, S63P, A74D, V80I, A85T, D91E, A98S, S101G, N111D
# VL: B1 VL with V2I, L10V, S24T, G26S, S30Y, K38T, V45L, A59V, T62S, S92T
# B4: chimeric antibody 16 (antibody, V domains shown)
# VH: QVTLKESGPGILQPSQTLSLTCSFSGFSLSTFALGVGWIRQPSGRGLEWLAHIWWDDDKYYNPALKSRLTISKDTSKNHVFLKIANVDTADTATYYCARITTYYYGMDYWGQGTSVTVSS
# VL: DIVLSQSPATLSVTPGDSVSLFCRASQSIGNHLHWYQQESHASPRLLIKYASQSISGIPSRFSGSGSGTDFTLSINSVETEDFGMYFCQQSYNWPLTFGAGTKLELK
# notes: chimeric version of clone #16, made in CHO cells, detected with anti-human IgG; also called ch16; chl6 (so in the source)
# B5: chimeric antibody 34 (antibody, V domains shown)
# VH: QVTLKESGPGILQPSQTLSLTCSFSGFSLSTFSLGVGWIRQSSGKGLEWLAHIWWDDEKYYNPALKSRLTISKDTSKNQVFLKIANVDAADTATYYCARAYYSKSYYALDYWGQGTSVTVSS
# VL: DIQMTQSPSSLSASLGERVSLTCRASQEISGYLSWLQQKPDGTIKRLIYAASTLDSGVPKRFSGSRSGSDYSLAISSLESEDFADYYCLQYANFPFTFGSGTKLEIK
# Tests used:
# [1] = molecular target: T1, human iRhom2, endogenously expressed; test: cell-based or functional assay
# [2] = molecular target: T2, dog iRhom2 full length wild type, …; test: FACS on MEF-DKO-iR2 Dog cells, 3 µg/ml
# Experimental: In brief, immortalized MEF-DKO-EV control cells, MEF-DKO-rhesus-iR2-FL-WT-T7 cells, MEF-DKO-cyno-iR2-FL-WT-T7 cells, MEF-DKO-dog-iR2-FL-WT-T7 cells and MEF-DKO-rabbit-iR2-FL-WT-T7 cells, as well as their respective iRhom1 counterparts, were harvested with 10 mM EDTA in PBS, washed and resuspended in FACS buffer (PBS, 3% FBS, 0.05% sodium azide), and seeded in Nunc U-bottom 96-well plates (Thermo Fisher Scientific, USA) at approximately 3×10⁵ cells per well. To pellet cells and remove supernatants, the plates were centrifuged at 1,500 rpm and 4° C. for 3 minutes. For primary staining, cells were resuspended in 100 μl per well of either FACS buffer alone (controls), mouse monoclonal anti-T7 IgG (Merck Millipore, USA) at 3 μg/ml FACS buffer or the antibodies of the invention also at 3 μg/ml FACS buffer and incubated on ice for 1 hour.
# Afterwards, plates were centrifuged at 1,500 rpm and 4° C. for 3 minutes and washed twice with 200 μl per well of FACS buffer. For secondary staining, cells were spun down and resuspended in 100 μl per well of PE-conjugated goat anti-mouse IgG F(ab′)2 detection fragment (Dianova, Germany) diluted 1:100 in FACS buffer. Protected from light, the cell suspensions were incubated on ice for 1 hour. […] Finally, cells were resuspended in 150 μl per well of FACS buffer and analyzed using a BD Accuri™ C6 Plus flow cytometer (Becton Dickinson, Germany).
# [3] = molecular target: T3, human iRhom1, endogenously expressed; test: FACS on RH-30 cells (iRhom1-positive, not iRhom2-positive)
Binder,"LPS-induced TNFα release from PBMCs of rheumatoid arthritis patients, percent inhibition, 1 µg/ml, chimeric antibody [1]","PMA-induced HB-EGF release from PBMCs of rheumatoid arthritis patients, percent inhibition, 1 µg/ml, chimeric antibody [1]","PMA-induced HB-EGF release from THP-1 cells, percent inhibition, 3 µg/ml [1]","PMA-induced HB-EGF release from U-937 cells, percent inhibition [1]","PMA-induced IL-6R release from PBMCs of rheumatoid arthritis patients, percent inhibition, 1 µg/ml, chimeric antibody [1]","PMA-induced IL-6R release from U-937 cells, percent inhibition, 3 µg/ml [1]","PMA-induced TNFα release from U-937 cells, percent inhibition, 3 µg/ml [1]",binding result [2],binding result [3]
B1,76.5%,54.7%,81.9%,103%,61.1%,85.6%,96.5%,–,–
B2,82.1%,76.1%,80.8%,103%,73.5%,91.8%,96.5%,–,–
B3,70.2%,37.8%,70.7%,99.2%,53.1%,85.2%,89.2%,–,–
B4,83.6%,66%,73.6%,101%,72.3%,84.3%,93.7%,binds,no binding (tested: 3 µg/ml)
B5,66.6%,30.6%,76.1%,98.1%,45.6%,82.8%,87.4%,–,–
